Measured values reported in the supplement of paper PMC9116672.
± gives the standard deviation of the averaged measurements or the uncertainty stated by the source.

Key:
[1] = duplex melting temperature (HRM, EvaGreen); higher = more stable duplex
Protocol: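 Listed DNA strand annealed 1:1 with its complementary strand (95 °C 5 min, 0.1 °C/s to 20 °C). Melted in 1x NNE buffer (500 mM NaCl, 10 mM Na2HPO4, 1 mM EDTA, pH 7.0) with 1x EvaGreen on a LightCycler96 (37 to 97 °C, 0.1 °C/s). Tm is the peak of -dF/dT at the stated total duplex concentration; 4 replicates are averaged. PS oligos are non-stereospecific (Rp/Sp mixtures).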

[2] = duplex formation free energy ΔG50 (Van't Hoff fit of HRM Tm); higher = less stable duplex; settings: temperature for dG: 50 °C, NaCl: 500 mM (unadjusted)
Protocol: (§1)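 Duplex of the listed DNA strand with its complement, in 1x NNE buffer (500 mM NaCl, pH 7.0) with 1x EvaGreen. ΔH and ΔS come from a Van't Hoff linear fit of 1/Tm against ln(CT/4) over 1-20 uM, using HRM Tm values.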

[3] = duplex formation enthalpy ΔH (Van't Hoff fit of HRM Tm); higher = less exothermic duplex formation; settings: temperature for dG: 50 °C, NaCl: 500 mM (unadjusted)
Protocol: as §1

[4] = duplex formation entropy ΔS (Van't Hoff fit of HRM Tm); higher = smaller entropy loss on duplex formation; settings: temperature for dG: 50 °C, NaCl: 500 mM (unadjusted)
Protocol: as §1

[5] = duplex concentration 1 µM, backbone: PO-PO (both strands phosphodiester DNA)
[6] = duplex concentration 1 µM, backbone: PS-PS (both strands fully phosphorothioate)
[7] = duplex concentration 2.5 µM, backbone: PO-PO (both strands phosphodiester DNA)
[8] = duplex concentration 2.5 µM, backbone: PS-PO (listed strand fully phosphorothioate, complement phosphodiester)
[9] = duplex concentration 2.5 µM, backbone: PS-PS (both strands fully phosphorothioate)
[10] = duplex concentration 5 µM, backbone: PO-PO (both strands phosphodiester DNA)
[11] = duplex concentration 5 µM, backbone: PS-PO (listed strand fully phosphorothioate, complement phosphodiester)
[12] = duplex concentration 5 µM, backbone: PS-PS (both strands fully phosphorothioate)
[13] = duplex concentration 7.5 µM, backbone: PO-PO (both strands phosphodiester DNA)
[14] = duplex concentration 7.5 µM, backbone: PS-PO (listed strand fully phosphorothioate, complement phosphodiester)
[15] = duplex concentration 7.5 µM, backbone: PS-PS (both strands fully phosphorothioate)
[16] = duplex concentration 10 µM, backbone: PO-PO (both strands phosphodiester DNA)
[17] = duplex concentration 10 µM, backbone: PS-PO (listed strand fully phosphorothioate, complement phosphodiester)
[18] = duplex concentration 10 µM, backbone: PS-PS (both strands fully phosphorothioate)
[19] = duplex concentration 15 µM, backbone: PO-PO (both strands phosphodiester DNA)
[20] = duplex concentration 15 µM, backbone: PS-PO (listed strand fully phosphorothioate, complement phosphodiester)
[21] = duplex concentration 15 µM, backbone: PS-PS (both strands fully phosphorothioate)
[22] = duplex concentration 20 µM, backbone: PO-PO (both strands phosphodiester DNA)
[23] = duplex concentration 20 µM, backbone: PS-PO (listed strand fully phosphorothioate, complement phosphodiester)
[24] = duplex concentration 20 µM, backbone: PS-PS (both strands fully phosphorothioate)
[25] = backbone: PO-PO (both strands phosphodiester DNA)
[26] = backbone: PS-PO (listed strand fully phosphorothioate, complement phosphodiester)
[27] = backbone: PS-PS (both strands fully phosphorothioate)
[28] = duplex concentration 1 µM, backbone: PS-PO (listed strand fully phosphorothioate, complement phosphodiester)

| Sequence | duplex melting temperature [1, 5] | duplex melting temperature [1, 6] | duplex melting temperature [1, 7] | duplex melting temperature [1, 8] | duplex melting temperature [1, 9] | duplex melting temperature [1, 10] | duplex melting temperature [1, 11] | duplex melting temperature [1, 12] | duplex melting temperature [1, 13] | duplex melting temperature [1, 14] | duplex melting temperature [1, 15] | duplex melting temperature [1, 16] | duplex melting temperature [1, 17] | duplex melting temperature [1, 18] | duplex melting temperature [1, 19] | duplex melting temperature [1, 20] | duplex melting temperature [1, 21] | duplex melting temperature [1, 22] | duplex melting temperature [1, 23] | duplex melting temperature [1, 24] | duplex formation free energy ΔG50 [2, 25] | duplex formation free energy ΔG50 [2, 26] | duplex formation free energy ΔG50 [2, 27] | duplex formation enthalpy ΔH [3, 25] | duplex formation enthalpy ΔH [3, 26] | duplex formation enthalpy ΔH [3, 27] | duplex formation entropy ΔS [4, 25] | duplex formation entropy ΔS [4, 26] | duplex formation entropy ΔS [4, 27] | duplex melting temperature [1, 28] |
| --- | --- | --- | --- | --- | --- | --- | --- | --- | --- | --- | --- | --- | --- | --- | --- | --- | --- | --- | --- | --- | --- | --- | --- | --- | --- | --- | --- | --- | --- | --- |
| TTGAAAACCCATGTGC | 60.23 ± 0.095 °C | 44.39 ± 0.2 °C | 62.8 ± 0.81 °C | 56.79 ± 0.24 °C | 47.54 ± 0.18 °C | 64.91 ± 0.47 °C | 59.35 ± 0.12 °C | 49.47 ± 0.39 °C | 66.29 ± 0.13 °C | 60.57 ± 0.15 °C | 50.5 ± 0.34 °C | 67.33 ± 0.16 °C | 61.45 ± 0.1 °C | 51.45 ± 0.23 °C | 68.7 ± 0.13 °C | 62.67 ± 0.086 °C | 52.45 ± 0.36 °C | 69.66 ± 0.17 °C | 63.58 ± 0.29 °C | 53.33 ± 0.26 °C | -11.8 ± 0.082 kcal/mol | -10.62 ± 0.078 kcal/mol | -8.581 ± 0.024 kcal/mol | -69.1 ± 1.7 kcal/mol | -68.7 ± 2.4 kcal/mol | -69.7 ± 2.8 kcal/mol | -177 ± 5 cal/mol/K | -180 ± 7.1 cal/mol/K | -189 ± 8.7 cal/mol/K |  |
| AGAGCGCCCTGCTGCC |  | 61.69 ± 0.3 °C | 76.76 ± 0.43 °C | 69.05 ± 0.38 °C | 64.26 ± 0.22 °C | 78.81 ± 0.32 °C | 71.34 ± 0.29 °C | 66.24 ± 0.22 °C | 79.83 ± 0.11 °C | 72.67 ± 0.34 °C | 67.29 ± 0.24 °C | 80.68 ± 0.17 °C | 73.6 ± 0.23 °C | 68.17 ± 0.076 °C | 81.9 ± 0.28 °C | 74.83 ± 0.1 °C | 69.33 ± 0.14 °C | 82.78 ± 0.25 °C | 75.7 ± 0.12 °C | 70.195 ± 0.058 °C | -15.8 ± 0.28 kcal/mol | -13.3 ± 0.17 kcal/mol | -12.59 ± 0.085 kcal/mol | -86.9 ± 3.2 kcal/mol | -74.4 ± 2.6 kcal/mol | -80.8 ± 1.7 kcal/mol | -220 ± 9 cal/mol/K | -189 ± 7.4 cal/mol/K | -211 ± 5 cal/mol/K |  |
| CAAACTTAGTAATCACGCCCAGCAACCA | 78.3 ± 0.4 °C | 62.3 ± 0.89 °C | 79.54 ± 0.39 °C | 72.56 ± 0.53 °C | 64.34 ± 0.43 °C | 80.55 ± 0.61 °C | 73.83 ± 0.46 °C | 65.81 ± 0.35 °C | 81.42 ± 0.21 °C | 74.22 ± 0.47 °C | 66.74 ± 0.11 °C | 82.09 ± 0.11 °C | 74.81 ± 0.22 °C | 67.319 ± 0.064 °C | 82.922 ± 0.079 °C | 75.66 ± 0.16 °C | 67.904 ± 0.048 °C | 83.591 ± 0.062 °C | 76.275 ± 0.049 °C | 68.51 ± 0.1 °C | -21 ± 0.74 kcal/mol | -19 ± 0.52 kcal/mol | -13.9 ± 0.17 kcal/mol | -141 ± 8.4 kcal/mol | -149 ± 7.5 kcal/mol | -112 ± 3.5 kcal/mol | -372 ± 24 cal/mol/K | -404 ± 22 cal/mol/K | -303 ± 10 cal/mol/K | 71.41 ± 0.5 °C |
| AATGAGGAGTGAAATGG | 61.5 °C | 45.74 ± 0.18 °C | 62.9 ± 0.89 °C | 57.29 ± 0.22 °C | 48.55 ± 0.12 °C | 65.1 ± 0.71 °C | 59.317 ± 0.05 °C | 50.54 ± 0.062 °C | 66.06 ± 0.59 °C | 60.42 ± 0.089 °C | 51.494 ± 0.05 °C | 67.14 ± 0.48 °C | 61.271 ± 0.056 °C | 52.36 ± 0.1 °C | 68.46 ± 0.62 °C | 62.43 ± 0.043 °C | 53.52 ± 0.054 °C | 69.63 ± 0.3 °C | 63.28 ± 0.098 °C | 54.406 ± 0.047 °C | -12 ± 0.16 kcal/mol | -10.83 ± 0.037 kcal/mol | -8.817 ± 0.012 kcal/mol | -73.5 ± 3.3 kcal/mol | -75.7 ± 1.2 kcal/mol | -72.8 ± 1.3 kcal/mol | -190 ± 9.7 cal/mol/K | -201 ± 3.6 cal/mol/K | -198 ± 4 cal/mol/K | 54.3 ± 0.28 °C |
